Source: patent US20160159919A1 (Chugai, published 2016)

These binders were tested against T1, soluble human EREG fragment having a mature EGF domain structure (R&D Systems cat. no. 1195-EP/CF) (human, UniProt O14944 63-108) (assay: competitive ELISA on coated soluble human EREG fragment).
T1 construct: bought; coated on ELISA plates; also called human epiregulin; recombinant human Epiregulin
Method: The soluble human EREG fragment having a mature EGF domain structure (the polypeptide of SEQ ID NO: 34 which corresponds to ⁶³Val to ¹⁰⁸Leu) was purchased from R&D Systems (cat. no. 1195-EP/CF). The soluble human EREG fragment was used to coat nunc immunoplates, and after blocking with a BSA-containing solution, the competitive binding reactivity between mouse hybridoma-derived EP27 and the purified humanized anti-EREG antibody was analyzed. Mouse hybridoma-derived EP27 and a purified humanized anti-EREG antibody were added to the plates, and after two hours of incubation, the plates were washed; and an alkaline phosphatase-labeled anti-human IgG antibody (Zymed) was added to each well of the plates and then allowed to react. Each well was washed, and then the amount of bound antibody (A405/655 detection value) was determined by addition of a test reagent, Sigma p-Nitrophenyl phosphate Tablets.

T1 sequence (O14944 63-108 limits assumed): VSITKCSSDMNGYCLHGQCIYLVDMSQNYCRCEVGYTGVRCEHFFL

Row | Binder | binding result
1 | H3-G1d/LB-k (antibody, human IgG1, kappa, V domains shown) VH: QDQLVQSGAEVKKPGASVKVSCKASGFNIKDTYIQWVRQAPGQGLEWMGRIDPLNGNTKYVDKFQGRVTITADTSTNTAYMELSSLRSEDTAVYYCVRSGTLFDFWGQGTLVTVSS VL: DIQMTQSPSSLSASVGDRVTITCKASQDIHKYIAWYQQKPGQAPRLLIQYTSTLQPGVPSRFSGSGSGTDYTFTISSLQPEDIATYYCLQYDNLRTFGGGTKVEIKR | binds
2 | H23-G1d/LB-k (antibody, human IgG1, kappa, V domains shown, also called H23-G1/LB-k) VH: QDQLVQSGAEVKKPGASVKVSCKASGFNIKDTYIQWVRQAPGQGLEWMGRIDPLNGSTKYVPKFQGRVTITADTSTNTAYMELSSLRSEDTAVYYCVRSGTLFDFWGQGTLVTVSS VL: DIQMTQSPSSLSASVGDRVTITCKASQDIHKYIAWYQQKPGQAPRLLIQYTSTLQPGVPSRFSGSGSGTDYTFTISSLQPEDIATYYCLQYDNLRTFGGGTKVEIKR | binds
3 | H43-G1d/LB-k (antibody, human IgG1, kappa, V domains shown) VH: QDQLVQSGAEVKKPGASVKVSCKASGFNIKDTYIQWVRQAPGQGLEWMGRIDPLNGNTKYRPKFQGRVTITADTSTNTAYMELSSLRSEDTAVYYCVRSGTLFDFWGQGTLVTVSS VL: DIQMTQSPSSLSASVGDRVTITCKASQDIHKYIAWYQQKPGQAPRLLIQYTSTLQPGVPSRFSGSGSGTDYTFTISSLQPEDIATYYCLQYDNLRTFGGGTKVEIKR | binds
4 | H66-G1d/LB-k (antibody, human IgG1, kappa, V domains shown, also called H66-G1/LB-k) VH: QDQLVQSGAEVKKPGASVKVSCKASGFNIKDTYIQWVRQAPGQGLEWMGRIDPLVGNTKYVPKFQGRVTITADTSTNTAYMELSSLRSEDTAVYYCVRSGTLFDFWGQGTLVTVSS VL: DIQMTQSPSSLSASVGDRVTITCKASQDIHKYIAWYQQKPGQAPRLLIQYTSTLQPGVPSRFSGSGSGTDYTFTISSLQPEDIATYYCLQYDNLRTFGGGTKVEIKR | binds
5 | H8-G1d/LB-k (antibody, human IgG1, kappa, V domains shown) VH: QDQLVQSGAEVKKPGASVKVSCKASGFNIKDTYIQWVRQAPGQGLEWMGRIDPLNGNTKYVPKFEGRVTITADTSTNTAYMELSSLRSEDTAVYYCVRSGTLFDFWGQGTLVTVSS VL: DIQMTQSPSSLSASVGDRVTITCKASQDIHKYIAWYQQKPGQAPRLLIQYTSTLQPGVPSRFSGSGSGTDYTFTISSLQPEDIATYYCLQYDNLRTFGGGTKVEIKR | binds
6 | H42-G1d/LB-k (antibody, human IgG1, kappa, V domains shown) VH: QDQLVQSGAEVKKPGASVKVSCKASGFNIKDTYIQWVRQAPGQGLEWMGRIDPLNGNTKYKPKFQGRVTITADTSTNTAYMELSSLRSEDTAVYYCVRSGTLFDFWGQGTLVTVSS VL: DIQMTQSPSSLSASVGDRVTITCKASQDIHKYIAWYQQKPGQAPRLLIQYTSTLQPGVPSRFSGSGSGTDYTFTISSLQPEDIATYYCLQYDNLRTFGGGTKVEIKR | binds
7 | H65-G1d/LB-k (antibody, human IgG1, kappa, V domains shown, also called H65-G1/LB-k) VH: QDQLVQSGAEVKKPGASVKVSCKASGFNIKDTYIQWVRQAPGQGLEWMGRIDPLFGNTKYVPKFQGRVTITADTSTNTAYMELSSLRSEDTAVYYCVRSGTLFDFWGQGTLVTVSS VL: DIQMTQSPSSLSASVGDRVTITCKASQDIHKYIAWYQQKPGQAPRLLIQYTSTLQPGVPSRFSGSGSGTDYTFTISSLQPEDIATYYCLQYDNLRTFGGGTKVEIKR | binds
8 | H44-G1d/LB-k (antibody, human IgG1, kappa, V domains shown) VH: QDQLVQSGAEVKKPGASVKVSCKASGFNIKDTYIQWVRQAPGQGLEWMGRIDPLNGNTKYSPKFQGRVTITADTSTNTAYMELSSLRSEDTAVYYCVRSGTLFDFWGQGTLVTVSS VL: DIQMTQSPSSLSASVGDRVTITCKASQDIHKYIAWYQQKPGQAPRLLIQYTSTLQPGVPSRFSGSGSGTDYTFTISSLQPEDIATYYCLQYDNLRTFGGGTKVEIKR | binds
9 | H67-G1d/LB-k (antibody, human IgG1, kappa, V domains shown, also called H67-G1/LB-k) VH: QDQLVQSGAEVKKPGASVKVSCKASGFNIKDTYIQWVRQAPGQGLEWMGRIDPLLGNTKYVPKFQGRVTITADTSTNTAYMELSSLRSEDTAVYYCVRSGTLFDFWGQGTLVTVSS VL: DIQMTQSPSSLSASVGDRVTITCKASQDIHKYIAWYQQKPGQAPRLLIQYTSTLQPGVPSRFSGSGSGTDYTFTISSLQPEDIATYYCLQYDNLRTFGGGTKVEIKR | binds
10 | H9-G1d/LB-k (antibody, human IgG1, kappa, V domains shown) VH: QDQLVQSGAEVKKPGASVKVSCKASGFNIKDTYIQWVRQAPGQGLEWMGRIDPLNGNTKYVPKFQDRVTITADTSTNTAYMELSSLRSEDTAVYYCVRSGTLFDFWGQGTLVTVSS VL: DIQMTQSPSSLSASVGDRVTITCKASQDIHKYIAWYQQKPGQAPRLLIQYTSTLQPGVPSRFSGSGSGTDYTFTISSLQPEDIATYYCLQYDNLRTFGGGTKVEIKR | binds
11 | H5-G1d/LB-k (antibody, human IgG1, kappa, V domains shown) VH: QDQLVQSGAEVKKPGASVKVSCKASGFNIKDTYIQWVRQAPGQGLEWMGRIDPLNGNTKYVPSFQGRVTITADTSTNTAYMELSSLRSEDTAVYYCVRSGTLFDFWGQGTLVTVSS VL: DIQMTQSPSSLSASVGDRVTITCKASQDIHKYIAWYQQKPGQAPRLLIQYTSTLQPGVPSRFSGSGSGTDYTFTISSLQPEDIATYYCLQYDNLRTFGGGTKVEIKR | binds

Second part, the binder after the results:

Row | binding result | Binder
12 | binds | H10-G1d/LB-k (antibody, human IgG1, kappa, V domains shown) VH: QDQLVQSGAEVKKPGASVKVSCKASGFNIKDTYIQWVRQAPGQGLEWMGRIDPLNGNTKYVPKFQERVTITADTSTNTAYMELSSLRSEDTAVYYCVRSGTLFDFWGQGTLVTVSS VL: DIQMTQSPSSLSASVGDRVTITCKASQDIHKYIAWYQQKPGQAPRLLIQYTSTLQPGVPSRFSGSGSGTDYTFTISSLQPEDIATYYCLQYDNLRTFGGGTKVEIKR
13 | binds | H6-G1d/LB-k (antibody, human IgG1, kappa, V domains shown) VH: QDQLVQSGAEVKKPGASVKVSCKASGFNIKDTYIQWVRQAPGQGLEWMGRIDPLNGNTKYVPQFQGRVTITADTSTNTAYMELSSLRSEDTAVYYCVRSGTLFDFWGQGTLVTVSS VL: DIQMTQSPSSLSASVGDRVTITCKASQDIHKYIAWYQQKPGQAPRLLIQYTSTLQPGVPSRFSGSGSGTDYTFTISSLQPEDIATYYCLQYDNLRTFGGGTKVEIKR
14 | binds | H7-G1d/LB-k (antibody, human IgG1, kappa, V domains shown) VH: QDQLVQSGAEVKKPGASVKVSCKASGFNIKDTYIQWVRQAPGQGLEWMGRIDPLNGNTKYVPKFDGRVTITADTSTNTAYMELSSLRSEDTAVYYCVRSGTLFDFWGQGTLVTVSS VL: DIQMTQSPSSLSASVGDRVTITCKASQDIHKYIAWYQQKPGQAPRLLIQYTSTLQPGVPSRFSGSGSGTDYTFTISSLQPEDIATYYCLQYDNLRTFGGGTKVEIKR
15 | binds | H40-G1d/LB-k (antibody, human IgG1, kappa, V domains shown, also called H40-G1/LB-k) VH: QDQLVQSGAEVKKPGASVKVSCKASGFNIKDTYIQWVRQAPGQGLEWMGRIDPLNGQTKYVPKFQGRVTITADTSTNTAYMELSSLRSEDTAVYYCVRSGTLFDFWGQGTLVTVSS VL: DIQMTQSPSSLSASVGDRVTITCKASQDIHKYIAWYQQKPGQAPRLLIQYTSTLQPGVPSRFSGSGSGTDYTFTISSLQPEDIATYYCLQYDNLRTFGGGTKVEIKR
16 | binds | H57-G1d/LB-k (antibody, human IgG1, kappa, V domains shown, also called H57-G1/LB-k) VH: QDQLVQSGAEVKKPGASVKVSCKASGFNIKDTYIQWVRQAPGQGLEWMGRIDPLTGNTKYVPKFQGRVTITADTSTNTAYMELSSLRSEDTAVYYCVRSGTLFDFWGQGTLVTVSS VL: DIQMTQSPSSLSASVGDRVTITCKASQDIHKYIAWYQQKPGQAPRLLIQYTSTLQPGVPSRFSGSGSGTDYTFTISSLQPEDIATYYCLQYDNLRTFGGGTKVEIKR
17 | binds | H61-G1d/LB-k (antibody, human IgG1, kappa, V domains shown, also called H61-G1/LB-k) VH: QDQLVQSGAEVKKPGASVKVSCKASGFNIKDTYIQWVRQAPGQGLEWMGRIDPLKGNTKYVPKFQGRVTITADTSTNTAYMELSSLRSEDTAVYYCVRSGTLFDFWGQGTLVTVSS VL: DIQMTQSPSSLSASVGDRVTITCKASQDIHKYIAWYQQKPGQAPRLLIQYTSTLQPGVPSRFSGSGSGTDYTFTISSLQPEDIATYYCLQYDNLRTFGGGTKVEIKR
18 | binds | H41-G1d/LB-k (antibody, human IgG1, kappa, V domains shown) VH: QDQLVQSGAEVKKPGASVKVSCKASGFNIKDTYIQWVRQAPGQGLEWMGRIDPLNGNTKYHPKFQGRVTITADTSTNTAYMELSSLRSEDTAVYYCVRSGTLFDFWGQGTLVTVSS VL: DIQMTQSPSSLSASVGDRVTITCKASQDIHKYIAWYQQKPGQAPRLLIQYTSTLQPGVPSRFSGSGSGTDYTFTISSLQPEDIATYYCLQYDNLRTFGGGTKVEIKR
19 | binds | H31-G1d/LB-k (antibody, human IgG1, kappa, V domains shown) VH: QDQLVQSGAEVKKPGASVKVSCKASGFNIKDTYIQWVRQAPGQGLEWMGRIDPLNGNTKYVEKFEGRVTITADTSTNTAYMELSSLRSEDTAVYYCVRSGTLFDFWGQGTLVTVSS VL: DIQMTQSPSSLSASVGDRVTITCKASQDIHKYIAWYQQKPGQAPRLLIQYTSTLQPGVPSRFSGSGSGTDYTFTISSLQPEDIATYYCLQYDNLRTFGGGTKVEIKR
20 | binds | H25-G1d/LB-k (antibody, human IgG1, kappa, V domains shown) VH: QDQLVQSGAEVKKPGASVKVSCKASGFNIKDTYIQWVRQAPGQGLEWMGRIDPLNGNTKYVPKFQGRVTITADTSTNTAYMELSSLRSEDTAVYYCVRSGTSFDFWGQGTLVTVSS VL: DIQMTQSPSSLSASVGDRVTITCKASQDIHKYIAWYQQKPGQAPRLLIQYTSTLQPGVPSRFSGSGSGTDYTFTISSLQPEDIATYYCLQYDNLRTFGGGTKVEIKR
21 | binds | H45-G1d/LB-k (antibody, human IgG1, kappa, V domains shown) VH: QDQLVQSGAEVKKPGASVKVSCKASGFNIKDTYIQWVRQAPGQGLEWMGRIDPLNGNTKYTPKFQGRVTITADTSTNTAYMELSSLRSEDTAVYYCVRSGTLFDFWGQGTLVTVSS VL: DIQMTQSPSSLSASVGDRVTITCKASQDIHKYIAWYQQKPGQAPRLLIQYTSTLQPGVPSRFSGSGSGTDYTFTISSLQPEDIATYYCLQYDNLRTFGGGTKVEIKR
